Laboratory results: the supplement of paper PMC9170038

Assays:
[1] = tested on: K4 kissing-loop RNA reporter; test: apparent KD of K4 kissing-loop reporter; higher = weaker reporter binding; conditions: Eterna round: R107;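 note: bound reporter read as fluorescence of individual clusters on recovered sequencing chips by microscopy, with normalized cluster intensities fitted with a binding model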
Experimental: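 RNA-MaP round R107: designed RNA switches with theophylline, tryptophan, arginine or FMN aptamers are transcribed on-chip within common flanks. They are titrated with a labelled K4 kissing-loop RNA reporter in RNA-MaP buffer (100 mM Tris pH 7.5, 80 mM KCl, 4 mM MgCl2), without ligand or with the indicated ligand. Median apparent KD per design.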

MS2 coat protein = test: apparent KD of MS2 coat protein; designed switch direction (-1 OFF switch, 1 ON switch): -1; higher = weaker reporter binding
Procedure, shortened: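 SNAP-549-labelled MS2 coat protein was titrated, doubling from 0.7 or 1.5 nM to 3 µM, over designed RNA switches transcribed on Illumina chips by stalled E. coli RNA polymerase. Runs were done without input, with 200 uM small-molecule ligand, or with an oligonucleotide input. Apparent KD is the per-design median over clusters of curve-fitted normalised fluorescence.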

[2] = Eterna round: R95, input ligand: microRNA oligo, concentration not stated
[3] = Eterna round: R95, input ligand: FMN 200 uM
[4] = Eterna round: R95, input ligand: none
[5] = input ligand: microRNA oligo, concentration not stated

Sequence	apparent KD of MS2 coat protein (MS2 coat protein; input ligand: FMN 200 uM) [µM]	apparent KD of MS2 coat protein (MS2 coat protein; input ligand: none) [µM]	apparent KD of MS2 coat protein (MS2 coat protein; [2]) [µM]	also measured
UGUGAUGUGUAGUGUUAUGUUUUGCGGGAUACCAGAGUCUUUUUAUUCCCUUGGCAGCUUGAGUGAUGUUUGAUGCUGUUGUUGU [pwwamullin]	–	–	–	apparent KD of K4 kissing-loop reporter ([1]; input ligand: FMN 200 uM): 0.485 µM; apparent KD of K4 kissing-loop reporter ([1]; input ligand: arginine 13.2 mM): 0.349 µM; apparent KD of K4 kissing-loop reporter ([1]; input ligand: none): 0.461 µM; apparent KD of K4 kissing-loop reporter ([1]; input ligand: theophylline 20 uM): 0.463 µM; apparent KD of K4 kissing-loop reporter ([1]; input ligand: tryptophan 2.4 mM): 0.339 µM
CUCCUGCGAGGAUAUACAUAGUGACGUCUGUUUAAUCUUAAACAUGAGGAUCACCCAUGUAGAAGGUGCGUCAC [EX2 #82] (Eterna round: R97, puzzle: Exclusion 2)	0.0131	0.0132	–	–
GUGUGCAGAGGAUAUACAGAGGAAAAGAAAAGAGAAGGGAGACAUGAGGAUCACCCAUGUAGAAGGCUGAGUGU [Excluse me!! 20 - Jieux - Exclusion 2] (puzzle: Exclusion 2)	–	–	0.0634	–
CCCGCAGGUUUUUUGCUCGACAUGAGGAUCACCCAUGUUGCGUGGGUUGUGUGUGUGUGGUGCAUAUAUAUGGUCCU [-25.4, -48.9 kcal, A 14%] (Eterna round: R97, puzzle: Sensor, turn-off variant 1)	0.3	0.35	–	–
AGAAGUAGUAACCGAUCCUACAUGAGGAUCACCCAUGUAGCCAGACGUGCACGCGAAGCUCGUCAGACUACCAGAUG [salish99_TOv1_r3_026] (puzzle: Sensor v3, turn-off variant 1)	–	–	0.447	apparent KD of MS2 coat protein (MS2 coat protein; [3]): 0.618 µM; apparent KD of MS2 coat protein (MS2 coat protein; [4]): 0.398 µM
AGAAGUAGUAGCCGAUCCUACAUGAGGAUCACCCAUGUAGCUAGACGUGCACGCGAUGCUCGUCAGACUACCAGAUG [salish99_TOv1_r3_031] (puzzle: Sensor v3, turn-off variant 1)	–	–	0.12	apparent KD of MS2 coat protein (MS2 coat protein; [3]): 0.131 µM; apparent KD of MS2 coat protein (MS2 coat protein; [4]): 0.155 µM
AAGGAUAGAGGAUAUACAUAGAUACAGAUUCAUGUAAUCCUACAUGAGGAUCACCCAUGUAGAAGGCUAUCCUA [Fiskers Ex 2 - 15] (puzzle: Exclusion 2)	–	–	0.0145	–
UUUUUCGUUUAAGCUUCGUACAUGAGGAUCACCCAUGUUUUUAGUUCUGUGUUGGUCAGUAUGGAAGUUCGUCUUAU [JR_SV3TOV1_Sub089] (puzzle: Sensor v3, turn-off variant 1)	–	–	0.166	apparent KD of MS2 coat protein (MS2 coat protein; [3]): 0.325 µM; apparent KD of MS2 coat protein (MS2 coat protein; [4]): 0.371 µM
AUAAUACAUGUAGGAUAUCUGCACGUUUAGUGCAGAGAAGGACAUGAGGAUCACCCAUGUAAUUAAGAUCAAUUAUUAAAUUAU [ENG1/3-D2] (Eterna round: R96, puzzle: Exclusion NG 1)	0.293	0.0662	–	apparent KD of MS2 coat protein (MS2 coat protein; [5]): 0.0547 µM
UAUUAACAAGCUAGGUCCCACAUGAGGAUCACCCAUGUGCUCGUCUUAUAAGGUACUGUGACGAAAGUCACGGUACC [Sensor 3, v1 - 79] (puzzle: Sensor v3, turn-off variant 1)	–	–	0.909	apparent KD of MS2 coat protein (MS2 coat protein; [3]): 0.03 µM; apparent KD of MS2 coat protein (MS2 coat protein; [4]): 0.0315 µM
UUUUAACAUGAGGAUCACCCAUGUGAGGAUAUCGUUAUUUUUAUUAAUAUUAAUAAAACGAGAAGGCACAUUUU [JMF 14] (puzzle: Exclusion 1)	–	–	0.0983	–
AGUAGAUCUACGCUUGCGUGGAUCUGCGAGGCAGGUGUAACAUGAGGAUCACCCAUGUCCUCAUUUGUUCGUCUUAU [JL turnoff v2 99.19] (puzzle: Sensor v3, turn-off variant 2)	–	–	0.377	apparent KD of MS2 coat protein (MS2 coat protein; [3]): 0.379 µM; apparent KD of MS2 coat protein (MS2 coat protein; [4]): 0.477 µM
AGCAAGCAAUAGGAUAUGCCUGCAAGCUUGCAUGCAGAAGGAUUGACUUGAGGAUCACCCAAGUGGGCUCCUAA [Erbexe] (Eterna round: R97, puzzle: Exclusion 6)	0.319	0.0495	–	–
UAUAUAUAGUAAGGAUAUGUAUAUACUUUAUAAACAGAAGGUACUGACAUGAGGAUCACCCAUGUUUUAGUGUGGGCAUGUAGA [JMF's solution 57] (Eterna round: R96, puzzle: Exclusion NG 1)	–	–	–	apparent KD of MS2 coat protein (MS2 coat protein; [5]): 0.0571 µM
GACAAGGGAGGAUAUGCACAAGGGAUAUCUGACAUGCCGAUACAUGAGGAUCACCCAUGUAGAAGGCCCGAAUA [Oneser] (puzzle: Exclusion 2)	–	–	0.0125	–
CCGUUGGUAGGAUAUCCAACGAUAUACUUGAGGAUCACCCAAGUCCGUAGGGCGUUCGAAGGAGAAGGGCUGAUGG [Zaisaat] (Eterna round: R97, puzzle: Exclusion 5)	0.12	0.108	–	–
GUGGUACAUGAGGAUCACCCAUGUUAGGAUAUCGCGUGGUUUUUUGCGGCCGCGCGCGCGAGAAGGGACGUCUU (puzzle: Exclusion 1)	–	–	0.0293	–
GGUCCACAUGAGGAUCACCCAUGUUAGGAUAUCUCGUCCGAGCAGUUAUGGGCCGGGCAGAGAAGGAAUGUGAA [Orbibibi] (puzzle: Exclusion 1)	–	–	0.0257	–
AAGUAGACGGUGAGGAUAUAGGUCGAAUGACCGAUUUAGAAGGUACAUGAGGAUCACCCAUGUGGGUAACGUCG [Brourd's EX4 #29] (Eterna round: R97, puzzle: Brourd's mod of Exclusion 4)	0.0565	0.107	–	–
UGUACUAACACGUAAGUGUUAGUACUAUAAGCUUGUGUUACAUGAGGAUCACCCAUGUCCUCAUAAGCUCGUCUUAA [Mat - Sensor v3 - Turn-off var 2 - D72] (puzzle: Sensor v3, turn-off variant 2)	–	–	0.182	apparent KD of MS2 coat protein (MS2 coat protein; [3]): 0.0397 µM; apparent KD of MS2 coat protein (MS2 coat protein; [4]): 0.0372 µM
CUAACAUGCUGGUGAUCAUACAUGAGGAUCACCCAUGUAACAAGCUUUUUGUUCGUCUUAUAAGAUCACCAGCAUGU [Stov1/9-B3] (Eterna round: R97, puzzle: Sensor, turn-off variant 1)	0.0138	0.0182	–	–
CGGCCGCAAGUCAGGAUAUGGACCUGCUUGGAGGACCAGAAGGGACAUGAGGAUCACCCAUGUGAUGAAAUAAA [BmEX4 A.24] (Eterna round: R97, puzzle: Brourd's mod of Exclusion 4)	0.0378	0.0283	–	–
AAUAACAGAGGAUAUACUGUUUUAUGUGUUUAUUGUUUUAAACAUGAGGAUCACCCAUGUAGAAGGCUGAAUGA [JMF 58] (puzzle: Exclusion 2)	–	–	0.0364	–
AUGCUCCGUGUAGGAUAUCGCCGUAUUAUUCGGCGAGAAGGACAUGAGGAUCACCCAUGUAUGUUAUUAUCACGUGUGGCGCGC [Design 47] (Eterna round: R96, puzzle: Exclusion NG 1)	0.0418	0.0218	–	apparent KD of MS2 coat protein (MS2 coat protein; [5]): 0.0136 µM
